Where two headings read alike, the source gives them in different places.
How the values were obtained:
Experiment in all cases: cell-based or functional assay
BMP9 [1] = biological target: BMP9 (UniProt Q9UK05)
GDF11 [2] = biological target: GDF11 (UniProt O95390)
activin A [3] = biological target: activin A (UniProt P08476)
GDF11 [4] = biological target: T1, GDF11 (UniProt O95390); remark: listed apart in the source
T1 sequence (looked up): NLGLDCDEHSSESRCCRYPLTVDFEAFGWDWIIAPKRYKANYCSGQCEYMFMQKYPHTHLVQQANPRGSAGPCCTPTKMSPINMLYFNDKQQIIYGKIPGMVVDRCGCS

BMP9 [5] = biological target: T2, BMP9 (UniProt Q9UK05); remark: listed apart in the source
T2 sequence (looked up): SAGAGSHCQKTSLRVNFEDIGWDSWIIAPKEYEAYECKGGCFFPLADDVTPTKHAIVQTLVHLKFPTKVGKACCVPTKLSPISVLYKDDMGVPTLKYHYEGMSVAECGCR

activin A [6] = biological target: T3, activin A (UniProt P08476); remark: listed apart in the source
T3 sequence (looked up): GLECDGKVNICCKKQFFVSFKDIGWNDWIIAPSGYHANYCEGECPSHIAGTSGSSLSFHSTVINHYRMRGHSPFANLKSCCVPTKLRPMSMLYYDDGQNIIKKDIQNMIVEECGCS

BMP10 [7] = biological target: BMP10 (UniProt O95393)
GDF11 [8] = biological target: GDF11 (UniProt O95390); remark: listed apart in the source
GDF8 [9] = biological target: GDF8 (UniProt O14793)
activin A [10] = biological target: activin A (UniProt P08476); remark: listed apart in the source
activin B [11] = biological target: activin B (UniProt P09529)
BMP10 [12] = biological target: T4, BMP10 (UniProt O95393); remark: listed apart in the source
T4 sequence (looked up): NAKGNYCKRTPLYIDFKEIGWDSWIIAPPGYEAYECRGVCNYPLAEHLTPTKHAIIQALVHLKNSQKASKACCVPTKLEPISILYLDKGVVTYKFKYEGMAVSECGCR

BMP9 [13] = biological target: T2, BMP9; remark: listed apart in the source
GDF11 [14] = biological target: T1, GDF11; remark: listed apart in the source
GDF8 [15] = biological target: T5, GDF8 (UniProt O14793); remark: listed apart in the source
T5 sequence (looked up): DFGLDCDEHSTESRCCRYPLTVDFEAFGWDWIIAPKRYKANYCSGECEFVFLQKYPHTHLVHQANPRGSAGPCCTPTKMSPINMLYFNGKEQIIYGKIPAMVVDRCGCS

activin A [16] = biological target: T3, activin A; remark: listed apart in the source
activin B [17] = biological target: T6, activin B (UniProt P09529); remark: listed apart in the source
T6 sequence (looked up): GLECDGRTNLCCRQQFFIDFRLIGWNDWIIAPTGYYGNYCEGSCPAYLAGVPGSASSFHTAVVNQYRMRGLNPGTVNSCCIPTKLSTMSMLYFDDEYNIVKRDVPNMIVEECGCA

Chain of ActRIIB(20-134)-G1Fc (Fc fusion) (chain): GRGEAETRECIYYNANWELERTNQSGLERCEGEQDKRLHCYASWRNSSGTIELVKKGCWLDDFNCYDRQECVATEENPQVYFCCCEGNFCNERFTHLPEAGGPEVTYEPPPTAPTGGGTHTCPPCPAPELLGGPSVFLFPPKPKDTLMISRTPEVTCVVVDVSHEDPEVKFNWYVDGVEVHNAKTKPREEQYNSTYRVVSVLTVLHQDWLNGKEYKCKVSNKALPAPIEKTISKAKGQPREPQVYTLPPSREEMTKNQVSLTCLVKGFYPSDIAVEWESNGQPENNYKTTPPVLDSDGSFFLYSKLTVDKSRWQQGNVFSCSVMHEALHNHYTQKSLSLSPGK

An IC50, A204 CAGA12 reporter gene assay (BMP9 [1]) of 5000 ng/mL, an IC50, A204 CAGA12 reporter gene assay (GDF11 [2]) of 15 ng/mL and an IC50, A204 CAGA12 reporter gene assay (activin A [3]) of 10 ng/mL were found for ActRIIB(F82K)-G1Fc (Fc fusion) in this work.

An IC50, A204 CAGA12 reporter gene assay (BMP9 [1]) of 290 ng/mL, an IC50, A204 CAGA12 reporter gene assay (GDF11 [2]) of 14 ng/mL and an IC50, A204 CAGA12 reporter gene assay (activin A [3]) of 19 ng/mL were found for ActRIIB(K55E)-G1Fc (Fc fusion) in this work.

An IC50, A204 CAGA12 reporter gene assay (GDF11 [4]) of 234 ng/mL was found for “variant ActRIIB-Fc polypeptide L79R (Fc fusion)” in this work.

An IC50, A204 CAGA12 reporter gene assay (BMP9 [5]) of 165 ng/mL and an IC50, A204 CAGA12 reporter gene assay (GDF11 [4]) of 45 ng/mL were found for “variant ActRIIB-Fc polypeptide K74R (Fc fusion)” in this work.

An IC50, A204 CAGA12 reporter gene assay (GDF11 [4]) of 544 ng/mL was found for “variant ActRIIB-Fc polypeptide Y60P (Fc fusion)” in this work.

An IC50, A204 CAGA12 reporter gene assay (BMP9 [5]) of 3000 ng/mL, an IC50, A204 CAGA12 reporter gene assay (GDF11 [4]) of 638 ng/mL and an IC50, A204 CAGA12 reporter gene assay (activin A [6]) of 756 ng/mL were found for “variant ActRIIB-Fc polypeptide E50P (Fc fusion)” in this work.

An IC50, A204 CAGA12 reporter gene assay (GDF11 [4]) of 414 ng/mL was found for “variant ActRIIB-Fc polypeptide Y60K (Fc fusion)” in this work.

An IC50, A204 CAGA12 reporter gene assay (BMP9 [1]) of 277 ng/mL, an IC50, A204 CAGA12 reporter gene assay (GDF11 [2]) of 9 ng/mL and an IC50, A204 CAGA12 reporter gene assay (activin A [3]) of 11 ng/mL were found for ActRIIB(F82I)-G1Fc (Fc fusion) in this work.

An IC50, A204 CAGA12 reporter gene assay (BMP9 [1]) of 122 ng/mL, an IC50, A204 CAGA12 reporter gene assay (GDF11 [2]) of 11 ng/mL and an IC50, A204 CAGA12 reporter gene assay (activin A [3]) of 15 ng/mL were found for ActRIIB(K55A)-G1Fc (Fc fusion) in this work.

An IC50, A204 CAGA12 reporter gene assay (BMP9 [5]) of 5500 ng/mL, an IC50, A204 CAGA12 reporter gene assay (GDF11 [4]) of 365 ng/mL and an IC50, A204 CAGA12 reporter gene assay (activin A [6]) of 396 ng/mL were found for “variant ActRIIB-Fc polypeptide K55D (Fc fusion)” in this work.

An IC50, A204 CAGA12 reporter gene assay (BMP9 [5]) of 409 ng/mL, an IC50, A204 CAGA12 reporter gene assay (GDF11 [4]) of 99 ng/mL and an IC50, A204 CAGA12 reporter gene assay (activin A [6]) of 128 ng/mL were found for “variant ActRIIB-Fc polypeptide A24N (Fc fusion)” in this work.

An IC50, A204 CAGA12 reporter gene assay (BMP9 [5]) of 1210 ng/mL and an IC50, A204 CAGA12 reporter gene assay (GDF11 [4]) of 591 ng/mL were found for “variant ActRIIB-Fc polypeptide R40A (Fc fusion)” in this work.

An IC50, A204 CAGA12 reporter gene assay (BMP9 [5]) of 10000 ng/mL, an IC50, A204 CAGA12 reporter gene assay (GDF11 [4]) of 296 ng/mL and an IC50, A204 CAGA12 reporter gene assay (activin A [6]) of 762 ng/mL were found for “variant ActRIIB-Fc polypeptide E52K (Fc fusion)” in this work.

An IC50, A204 CAGA12 reporter gene assay (BMP10 [7]) of 0.07 nM, an IC50, A204 CAGA12 reporter gene assay (GDF11 [8]) of 0.27 nM and an IC50, A204 CAGA12 reporter gene assay (GDF8 [9]) of 2.17 nM were found for ActRIIB(F82T)-G1Fc (Fc fusion) in this work. It also gave an IC50, A204 CAGA12 reporter gene assay (activin A [10]) of 0.1 nM and an IC50, A204 CAGA12 reporter gene assay (activin B [11]) of 0.09 nM.

An IC50, A204 CAGA12 reporter gene assay (BMP9 [5]) of 359 ng/mL, an IC50, A204 CAGA12 reporter gene assay (GDF11 [4]) of 71 ng/mL and an IC50, A204 CAGA12 reporter gene assay (activin A [6]) of 198 ng/mL were found for “variant ActRIIB-Fc polypeptide E52A (Fc fusion)” in this work.

An IC50, A204 CAGA12 reporter gene assay (GDF11 [4]) of 276 ng/mL was found for “variant ActRIIB-Fc polypeptide F82W (Fc fusion)” in this work.

An IC50, A204 CAGA12 reporter gene assay (BMP9 [5]) of 40000 ng/mL and an IC50, A204 CAGA12 reporter gene assay (GDF11 [4]) of 389 ng/mL were found for “variant ActRIIB-Fc polypeptide F82W/N83A (Fc fusion)” in this work.

An IC50, A204 CAGA12 reporter gene assay (BMP9 [5]) of 721 ng/mL, an IC50, A204 CAGA12 reporter gene assay (GDF11 [4]) of 180 ng/mL and an IC50, A204 CAGA12 reporter gene assay (activin A [6]) of 132 ng/mL were found for “variant ActRIIB-Fc polypeptide E50K (Fc fusion)” in this work.

An IC50, A204 CAGA12 reporter gene assay (GDF11 [4]) of 477 ng/mL was found for “variant ActRIIB-Fc polypeptide L79K (Fc fusion)” in this work.

An IC50, A204 CAGA12 reporter gene assay (BMP10 [12]) of 0.036 nM, an IC50, A204 CAGA12 reporter gene assay (BMP9 [13]) of 1.82 nM and an IC50, A204 CAGA12 reporter gene assay (GDF11 [14]) of 0.12 nM were found for ActRIIB(20-134)-G1Fc (Fc fusion) in this work. For the same substance, the IC50, A204 CAGA12 reporter gene assay (GDF8 [15]) was 0.95 nM, the IC50, A204 CAGA12 reporter gene assay (activin A [16]) was 0.05 nM and the IC50, A204 CAGA12 reporter gene assay (activin B [17]) was 0.067 nM. For the same substance, the IC50, A204 CAGA12 reporter gene assay (BMP9 [5]) was 31 ng/mL, the IC50, A204 CAGA12 reporter gene assay (GDF11 [4]) was 9 ng/mL and the IC50, A204 CAGA12 reporter gene assay (activin A [6]) was 8 ng/mL.

An IC50, A204 CAGA12 reporter gene assay (BMP9 [5]) of 777 ng/mL, an IC50, A204 CAGA12 reporter gene assay (GDF11 [4]) of 318 ng/mL and an IC50, A204 CAGA12 reporter gene assay (activin A [6]) of 206 ng/mL were found for “variant ActRIIB-Fc polypeptide K55R (Fc fusion)” in this work.
